Experimental data: the supplement of paper PMC10126150
± gives the standard deviation of the averaged measurements.

Tested on: ATP
Experiment: switch fluorescence ratio, 500 uM ATP over buffer (Cy3 cluster intensity, sum of 5 cycles each) (fold (ratio)); higher = stronger signal-on switching upon ATP binding; sequences stand for … in TCGTCGGCAGCGTCAGATGTGTATAAGAGACAGTTTTTTTTTTTTTTTTTTTTTTTTT…TC
Details: aptamer strand: ATP DNA aptamer (quencher-CACCTGGGGGAGTATTGCGGAGGAAGG + anchor), 100 nM annealed; ATP concentration: 500 uM
Summary of the method: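 Clusters carrying Cy3-labelled switching strands on a modified Illumina MiSeq flow-cell were annealed to 100 nM quencher-labelled ATP aptamer and imaged in selection buffer. They were imaged again after 15 min with 500 uM ATP at 22 °C, over five buffer/ATP cycles with NaOH stripping and re-annealing in between. For each cluster, the fluorescence ratio is the summed Cy3 intensity of the target cycles divided by that of the buffer cycles, averaged per switch-domain sequence. Clusters outside 100-1000 RFU were left out.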
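Note: ATP exposure 15 min at 22 °C before imaging.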

**Q.** AGAAAAAGGC was tested. Which switch fluorescence ratio did it give?
**A.** 1.02 ± 0.065

**Q.** Which switch fluorescence ratio does the source give for ACTGATCAGA here?
**A.** 0.99427 ± 0.00038

**Q.** With CGGGGGAGCC as the sequence, how does the switch fluorescence ratio read?
**A.** 1.02 ± 0.025

**Q.** Which switch fluorescence ratio does the source give for TTTAATAGTG here?
**A.** 0.971 ± 0.014

**Q.** Which switch fluorescence ratio does the source give for AACGTGTATT here?
**A.** 1.1 ± 0.12

**Q.** How did the switch fluorescence ratio turn out when ATTTAGACGT was run?
**A.** 0.974 ± 0.026

**Q.** For TATTCGGAGC, which switch fluorescence ratio is on record?
**A.** 1.01 ± 0.037

**Q.** TTTAGTTACT was tested. Which switch fluorescence ratio did it give?
**A.** 1.06 ± 0.022

**Q.** Which switch fluorescence ratio does the source give for AGAATAGTCA here?
**A.** 1 ± 0.037

**Q.** How did the switch fluorescence ratio turn out when TTCTCAGCAA was run?
**A.** 2.43 ± 0.64

**Q.** Which switch fluorescence ratio does the source give for GGGTATCCTC here?
**A.** 0.986 ± 0.037

**Q.** For GCTCTAGATC, which switch fluorescence ratio is on record?
**A.** 1.35 ± 0.07

**Q.** For GGGTGTAACT, which switch fluorescence ratio is on record?
**A.** 0.9812 ± 0.0074

**Q.** With CTGTAAGGTT as the sequence, how does the switch fluorescence ratio read?
**A.** 1.09 ± 0.14

**Q.** For GATTTGTGAC, which switch fluorescence ratio is on record?
**A.** 0.977 ± 0.052

**Q.** For TGGGGACGCT, which switch fluorescence ratio is on record?
**A.** 0.9977 ± 0.004

**Q.** With CATAAGCCTC as the sequence, how does the switch fluorescence ratio read?
**A.** 1.03 ± 0.056

**Q.** Which switch fluorescence ratio does the source give for AGATGGAATT here?
**A.** 0.994 ± 0.048

**Q.** Which switch fluorescence ratio does the source give for ATGTAGAAAT here?
**A.** 1.05 ± 0.039

**Q.** AGGTTTGGAT was tested. Which switch fluorescence ratio did it give?
**A.** 0.991 ± 0.078

**Q.** For GTCGGGGGGG, which switch fluorescence ratio is on record?
**A.** 0.999 ± 0.031

**Q.** CAGTAAAAGT was tested. Which switch fluorescence ratio did it give?
**A.** 0.983 ± 0.031

**Q.** With GCCAGGGTGG as the sequence, how does the switch fluorescence ratio read?
**A.** 1.01 ± 0.039

**Q.** With ATGGGGTCGG as the sequence, how does the switch fluorescence ratio read?
**A.** 1 ± 0.035

**Q.** For CTATTGGTTT, which switch fluorescence ratio is on record?
**A.** 0.9746 ± 0.0021

**Q.** Which switch fluorescence ratio does the source give for GCTGGCAGCC here?
**A.** 1.01 ± 0.069

**Q.** With TCCTACTACG as the sequence, how does the switch fluorescence ratio read?
**A.** 1.08 ± 0.026

**Q.** For AGTTATTGAG, which switch fluorescence ratio is on record?
**A.** 0.9991 ± 0.0043

**Q.** For CACTAAAGAT, which switch fluorescence ratio is on record?
**A.** 1.004 ± 0.0052

**Q.** How did the switch fluorescence ratio turn out when TAGGGCGGAG was run?
**A.** 0.957 ± 0.025

**Q.** CCGGTGCGTG was tested. Which switch fluorescence ratio did it give?
**A.** 1.13 ± 0.14

**Q.** AATTTAAGGT was tested. Which switch fluorescence ratio did it give?
**A.** 0.977 ± 0.022

**Q.** With TGGTACGGTC as the sequence, how does the switch fluorescence ratio read?
**A.** 0.927 ± 0.041

**Q.** How did the switch fluorescence ratio turn out when CAGGGGGCGT was run?
**A.** 0.984 ± 0.0037

**Q.** For TAAGAGAATT, which switch fluorescence ratio is on record?
**A.** 1.02 ± 0.023

**Q.** Which switch fluorescence ratio does the source give for AAATCTAGAC here?
**A.** 0.998 ± 0.011

**Q.** How did the switch fluorescence ratio turn out when TTCGTAGTTG was run?
**A.** 0.992 ± 0.054

**Q.** Which switch fluorescence ratio does the source give for ATGATGAATG here?
**A.** 0.975 ± 0.054

**Q.** How did the switch fluorescence ratio turn out when TCTCCCGGCA was run?
**A.** 1.34 ± 0.2

**Q.** For TTCTACAGTA, which switch fluorescence ratio is on record?
**A.** 1.036 ± 0.0059

**Q.** Which switch fluorescence ratio does the source give for TTATTTTGGG here?
**A.** 0.99 ± 0.037

**Q.** Which switch fluorescence ratio does the source give for AGTGGTACTA here?
**A.** 0.991 ± 0.038

**Q.** With AGACGCCAAG as the sequence, how does the switch fluorescence ratio read?
**A.** 1.01 ± 0.029

**Q.** How did the switch fluorescence ratio turn out when AGGCCGTAGG was run?
**A.** 0.937 ± 0.048

**Q.** With ATTCCGCCGA as the sequence, how does the switch fluorescence ratio read?
**A.** 1.48 ± 0.08

**Q.** Which switch fluorescence ratio does the source give for GATGAGGTGC here?
**A.** 1.07 ± 0.024

**Q.** How did the switch fluorescence ratio turn out when CGCATTTTGC was run?
**A.** 1.19 ± 0.15

**Q.** How did the switch fluorescence ratio turn out when TACGGAGTGG was run?
**A.** 1.06 ± 0.026

**Q.** GCCCGTCTGA was tested. Which switch fluorescence ratio did it give?
**A.** 0.985 ± 0.075

**Q.** Which switch fluorescence ratio does the source give for ATGAAAATCC here?
**A.** 1.03 ± 0.021

**Q.** With CCAGGAGTAG as the sequence, how does the switch fluorescence ratio read?
**A.** 1.034 ± 0.0039

**Q.** Which switch fluorescence ratio does the source give for CCAACCATTG here?
**A.** 1.03 ± 0.011

**Q.** How did the switch fluorescence ratio turn out when CTGGGGGGGC was run?
**A.** 1.01 ± 0.043

**Q.** Which switch fluorescence ratio does the source give for CCTGAGTTTG here?
**A.** 1.01 ± 0.035

**Q.** For GTGACTTAGT, which switch fluorescence ratio is on record?
**A.** 1.03 ± 0.02

**Q.** For GTTTGTATTT, which switch fluorescence ratio is on record?
**A.** 1 ± 0.017

**Q.** Which switch fluorescence ratio does the source give for CTGAGTAGTT here?
**A.** 1.01 ± 0.018

**Q.** TGCGGTAGAA was tested. Which switch fluorescence ratio did it give?
**A.** 1.01 ± 0.024

**Q.** For CTTGCTATGC, which switch fluorescence ratio is on record?
**A.** 1.64 ± 0.4

**Q.** With ATTTCGGCAC as the sequence, how does the switch fluorescence ratio read?
**A.** 0.9959 ± 0.0091

**Q.** With GCAGAGTGTT as the sequence, how does the switch fluorescence ratio read?
**A.** 1.02 ± 0.027

**Q.** For GAGAAAAGTG, which switch fluorescence ratio is on record?
**A.** 1.03 ± 0.086

**Q.** With GACTCGATCC as the sequence, how does the switch fluorescence ratio read?
**A.** 1.08 ± 0.023

**Q.** How did the switch fluorescence ratio turn out when TTTATGCCGT was run?
**A.** 0.9505 ± 0.0022

**Q.** How did the switch fluorescence ratio turn out when CGTGCCGTGG was run?
**A.** 0.995 ± 0.024

**Q.** How did the switch fluorescence ratio turn out when TCGGAGGGGC was run?
**A.** 1.03 ± 0.013

**Q.** For CTCCTCTACC, which switch fluorescence ratio is on record?
**A.** 1.64 ± 0.048

**Q.** With AGAGTTGGGA as the sequence, how does the switch fluorescence ratio read?
**A.** 1.01 ± 0.018

**Q.** How did the switch fluorescence ratio turn out when CGTTCAAGTT was run?
**A.** 1 ± 0.024

**Q.** Which switch fluorescence ratio does the source give for GGTTGGATTT here?
**A.** 0.978 ± 0.017

**Q.** How did the switch fluorescence ratio turn out when CTACTCCGTT was run?
**A.** 1.29 ± 0.068

**Q.** TGCCTGCATT was tested. Which switch fluorescence ratio did it give?
**A.** 1.02 ± 0.011

**Q.** With TTATCGGCGC as the sequence, how does the switch fluorescence ratio read?
**A.** 0.999 ± 0.014

**Q.** How did the switch fluorescence ratio turn out when CTTTACTTTT was run?
**A.** 1.014 ± 0.0061

**Q.** How did the switch fluorescence ratio turn out when TGTTAGGGGC was run?
**A.** 0.98 ± 0.046

**Q.** ATTTCTGTTT was tested. Which switch fluorescence ratio did it give?
**A.** 1 ± 0.015

**Q.** For GGCAGGAAAG, which switch fluorescence ratio is on record?
**A.** 1 ± 0.011
